From article PMC4299515

How the values were obtained:
[1] = molecular target: full-length HP1β (heterochromatin protein 1 beta) (UniProt P83917); assay: AUC; sedimentation velocity, c(s) distribution, 8–30 μM protein, physiological ionic strength; no larger complexes than the dimer up to 30 μM
[2] = molecular target: full-length HP1β (heterochromatin protein 1 beta) (UniProt P83917); assay: AUC; sedimentation velocity at lower concentrations (two peaks in c(s)); KD from the relative molar fractions of monomer and dimer; dimer to monomers; physiological ionic strength
[3] = molecular target: isolated chromoshadow-domain (CSD) of HP1β; assay: AUC; sedimentation velocity, c(s) distribution, 8–30 μM protein, physiological ionic strength; no larger complexes than the dimer up to 30 μM

Sequence of full-length HP1β (heterochromatin protein 1 beta), P83917 1-185 (natural protein; other documents disagree on this pair) (P83917 whole entry): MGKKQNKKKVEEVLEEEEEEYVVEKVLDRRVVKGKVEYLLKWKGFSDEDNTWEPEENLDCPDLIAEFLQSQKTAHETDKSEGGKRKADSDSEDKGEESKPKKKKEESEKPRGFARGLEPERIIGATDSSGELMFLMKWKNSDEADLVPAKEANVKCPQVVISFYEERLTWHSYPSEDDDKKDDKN
Sequence of isolated chromoshadow-domain (CSD) of HP1β (domain or fragment) (P83916 whole entry, the tested form may be a part): as the sequence (P83917 whole entry) above

Row | Substance | stoichiometry N [1] | Kd [2] [nM] | stoichiometry N [3]
1 | full-length HP1β (heterochromatin protein 1 beta), P83917 1-185 (natural protein; other documents disagree on this pair) | 2 | 1000 to 2000 | 
2 | isolated chromoshadow-domain (CSD) of HP1β (domain or fragment) |  |  | 2
